According to paper PMC5379935, “Crystal structure and RNA-binding properties of an Hfq homolog from the deep-branching Aquificae: conservation of the lateral RNA-binding mode” (Acta Crystallographica. Section D, Structural Biology, 2016):

Assays:
[1] = biological target: the molecule itself; assay: SEC-MALS; Superdex 200 Increase 10/300 GL, 50 mM Tris pH 8.0, 200 mM NaCl; Aae Hfq alone; monodisperse peak
[2] = biological target: the molecule itself; assay: cross-linking; formaldehyde, indirect (vapor-diffusion) method, 0.6 mg/ml Hfq in 25 mM HEPES pH 8.0, 500 mM NaCl, 310 K, 40 min; read out by MALDI-TOF MS
[3] = biological target: T1, Aae Hfq (Aquifex aeolicus, UniProt O66512 1-80); assay: fluorescence polarization; no Mg2+; per hexamer; 4-parameter fit, Hill 2.2; FP: 50 mM Tris pH 8.0, 500 mM NaCl, 5 nM FAM-RNA, +/- 10 mM MgCl2, 45 min, room temperature; conditions: protein: recombinant; tags: 6xHis removed by thrombin; residual N-terminal G-2 S-1 H0; chain copies: 6; label: 5'-FAM; single strand
T1 sequence: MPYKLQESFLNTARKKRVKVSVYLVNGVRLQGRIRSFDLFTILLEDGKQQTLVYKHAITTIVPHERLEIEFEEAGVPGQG

[4] = biological target: T1, Aae Hfq; assay: fluorescence polarization; 10 mM Mg2+; per hexamer; 4-parameter fit, Hill 2.4; FP: 50 mM Tris pH 8.0, 500 mM NaCl, 5 nM FAM-RNA, +/- 10 mM MgCl2, 45 min, room temperature; conditions: protein: recombinant; tags: 6xHis removed by thrombin; residual N-terminal G-2 S-1 H0; chain copies: 6; label: 5'-FAM; single strand
[5] = biological target: T1, Aae Hfq; assay: fluorescence polarization; no significant binding detected; FP: 50 mM Tris pH 8.0, 500 mM NaCl, 5 nM FAM-RNA, +/- 10 mM MgCl2, 45 min, room temperature; conditions: protein: recombinant; tags: 6xHis removed by thrombin; residual N-terminal G-2 S-1 H0; chain copies: 6; label: FAM; single strand
[6] = biological target: T1, Aae Hfq; assay: fluorescence polarization; no Mg2+; per hexamer; 4-parameter fit, Hill 1.3; FP: 50 mM Tris pH 8.0, 500 mM NaCl, 5 nM FAM-RNA, +/- 10 mM MgCl2, 45 min, room temperature; conditions: protein: recombinant; tags: 6xHis removed by thrombin; residual N-terminal G-2 S-1 H0; chain copies: 6; label: 5'-FAM; single strand
[7] = biological target: T1, Aae Hfq; assay: fluorescence polarization; 10 mM Mg2+; per hexamer; 4-parameter fit, Hill 1.7; FP: 50 mM Tris pH 8.0, 500 mM NaCl, 5 nM FAM-RNA, +/- 10 mM MgCl2, 45 min, room temperature; conditions: protein: recombinant; tags: 6xHis removed by thrombin; residual N-terminal G-2 S-1 H0; chain copies: 6; label: 5'-FAM; single strand

B1: Aquifex aeolicus Hfq (working construct after proteolytic removal of the 6xHis tag, 83 amino acids) (natural protein)
chain: GSHMPYKLQESFLNTARKKRVKVSVYLVNGVRLQGRIRSFDLFTILLEDGKQQTLVYKHAITTIVPHERLEIEFEEAGVPGQG
notes: three plasmid-derived residues (G-2, S-1, H0) that remain at the N-terminus after thrombin cleavage of the 6xHis tag; 83 residues, 9482.9 Da after tag removal (cleaved at G-2); Hexameric ring; two rings stack into a dodecamer in the P1 crystal, on cross-linking, and in solution with A18 RNA; also called Aae Hfq; (Hfq)6; not shown: His6, N-terminal, cleaved
stoichiometry N [1]: 6 | stoichiometry N [2]: 12

AAAAAAAAAAAAAAAAAA (ssRNA) [FAM-A18]
Kd [3]: 17.4 nM | Kd [4]: 9.5 nM

CCCCCC (ssRNA) [FAM-C6]
binding result [5]: no binding

AAAAAA (ssRNA) [FAM-A6]
binding result [5]: no binding

UUUUUU (ssRNA) [FAM-U6]
Kd [6]: 21.3 nM | Kd [7]: 2.1 nM
